Laboratory results as given in patent publication US20250034271A1 (EUCURE BEIJING BIOPHARMA, published 2025).

Legend:
[1] = target: T1, Histidine-tagged human CD40 protein (hCD40-His) (human, UniProt P25942 21-193); test: SPR, Biacore T200; antibody on Protein A chip, hCD40-His injected; 1:1 fit
T1 construct: not shown: histidine tag
Method: The binding affinity of the anti-hCD40 antibodies were measured using surface plasmon resonance (SPR) using Biacore (Biacore, INC, Piscataway N.J.) T200 biosensor equipped with pre-immobilized Protein A sensor chips.
(§1) Anti-hCD40 antibodies were collected by transfecting CHO-S cells and then purified. The antibodies (1 μg/mL) were injected into Biacore T200 biosensor at 10 μL/min for about 24-33 seconds to achieve to a desired protein density (about 44-57 response units (RU)). […] Dissociation was monitored for 300 seconds. The chip was regenerated after the last injection of each titration with Glycine (pH 2.0, 30 μL/min for 12 seconds).

[2] = target: T2, Histidine-tagged mfCD40 protein (mfCD40-His), Macaca fascicularis (Macaca fascicularis, UniProt G7PG38 21-193); test: SPR, Biacore T200; antibody on Protein A chip, mfCD40-His injected; 1:1 fit
T2 construct: not shown: histidine tag
Method: The binding affinity of the anti-hCD40 antibodies with mfCD40 (Macaca fascicularis) were measured using surface plasmon resonance (SPR) using Biacore (Biacore, INC, Piscataway N.J.) T200 biosensor equipped with pre-immobilized Protein A sensor chips.
as §1, with “were” for “were collected by transfecting CHO-S cells and then”, “(0.5” for “(1”, “18-26” for “24-33”, “44-58” for “44-57”, “300-600” for “300”

T1 sequence (P25942 21-193 limits assumed): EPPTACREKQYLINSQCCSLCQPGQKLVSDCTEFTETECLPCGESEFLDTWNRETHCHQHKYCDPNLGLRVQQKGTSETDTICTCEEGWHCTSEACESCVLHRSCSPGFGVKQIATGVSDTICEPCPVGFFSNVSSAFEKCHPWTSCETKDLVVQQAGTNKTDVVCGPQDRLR

Row | Binder | Kd [1] | koff [1] | kon [1] | Kd [2] | koff [2] | kon [2]
1 | 4H6-mHvKv-IgG1 (antibody, V domains shown, Chimeric) VH: EVKLQESGPSLVKPSQTLSLTCSVTGDSVSSGYWNWIRKFPGNKLEYMGFISYSGSTYYTPSLKSRISITRDTSKNQFYLQLNSVTTEDTATYFCARFRRYDDGVDYWGQGTTLTVSS VL: DIQMTQSPSSLSASLGERVSLTCRASHEISGYLSWIQQKPDGTIKRLINAASTLASGVPKRFSGSRSGSEYSLTINSLESEDFADYYCLQYSSYPWTFGGGTKLEIK | 0.0365 µM | 0.0205 s⁻¹ | 561000 M⁻¹ s⁻¹ |  |  | 
2 | 4H6-H3K2-IgG4 (antibody, V domains shown, Humanized) VH: EVQLQESGPGLVKPSQTLSLTCTVSGDSVSSGYWNWIRKHPGKKLEYMGFISYSGSTYYTPSLKSRITISRDTSKNQFSLKLSSVTAADTAVYFCARFRRYDDGVDYWGQGTLVTVSS VL: DIQMTQSPSAMSASVGDRVTITCRASHEISGYLSWIQQKPGGTIKRLINAASTLASGVPSRFSGSRSGTEFTLTISSLQPEDFADYYCLQYSSYPWTFGGGTKLEIK | 0.0536 µM | 0.0215 s⁻¹ | 401000 M⁻¹ s⁻¹ | 0.0336 µM | 0.0192 s⁻¹ | 570000 M⁻¹ s⁻¹
3 | 4H6-H4K2-IgG4 (antibody, V domains shown, Humanized) VH: EVQLQESGPGLVKPSQTLSLTCTVSGDSVSSGYWNWIRKFPGKKLEYMGFISYSGSTYYTPSLKSRITISRDTSKNQFSLKLSSVTAADTAVYFCARFRRYDDGVDYWGQGTLVTVSS VL: DIQMTQSPSAMSASVGDRVTITCRASHEISGYLSWIQQKPGGTIKRLINAASTLASGVPSRFSGSRSGTEFTLTISSLQPEDFADYYCLQYSSYPWTFGGGTKLEIK | 0.0487 µM | 0.0191 s⁻¹ | 392000 M⁻¹ s⁻¹ | 0.0297 µM | 0.0169 s⁻¹ | 568000 M⁻¹ s⁻¹
4 | 6A7-H2K3-IgG4 (antibody, V domains shown, Humanized) VH: QVQLVQSGAEVKKPGASVKVSCKASGYTFISYYIYWVRQAPGQGLEWIGGINPRNGGTNFNEKFKSRATLTVDTSISTAYMELSRLRSEDTAVYYCARHGNGVYWGQGTTVTVSS VL: DVVMTQSPLSLPVTLGDPASISCRSSQSLLHSNGNTYLHWYQQRPGQSPNHLIYQVSNRFSGVPDRFSGSGSGTDFTLKISRVEAEDVGVYFCSQTTHVPWTFGGGTKLEIK | 0.111 µM | 0.00505 s⁻¹ | 45300 M⁻¹ s⁻¹ |  |  | 
5 | 6A7-H3K1-IgG4 (antibody, V domains shown, Humanized) VH: QVQLVQSGAEVKKPGASVKVSCKASGYTFISYYIYWVRQAPGQGLEWIGGINPRNGGTNFNEKFKSRATLTVDTSISTAYMELSRLRSEDTAVYYCTRHGNGVYWGQGTTVTVSS VL: DVVMTQSPLSLPVTLGQPASISCRSSQSLLHSNGNTYLHWFQQRPGQSPRHLIYQVSNRFSGVPDRFSGSGSGTDFTLKISRVEAEDVGVYYCSQTTHVPWTFGGGTKVEIK | 0.0208 µM | 0.000574 s⁻¹ | 27600 M⁻¹ s⁻¹ |  |  | 

Other lines, results leading:

Row | Kd [1] | koff [1] | kon [1] | Kd [2] | koff [2] | kon [2] | Binder
6 | 0.00574 µM | 0.000371 s⁻¹ | 64600 M⁻¹ s⁻¹ |  |  |  | 6A7-H3K2-IgG4 (antibody, V domains shown, Humanized) VH: QVQLVQSGAEVKKPGASVKVSCKASGYTFISYYIYWVRQAPGQGLEWIGGINPRNGGTNFNEKFKSRATLTVDTSISTAYMELSRLRSEDTAVYYCTRHGNGVYWGQGTTVTVSS VL: DVVMTQSPLSLPVTLGQPASISCRSSQSLLHSNGNTYLHWYQQRPGQSPNHLIYQVSNRFSGVPDRFSGSGSGTDFTLKISRVEAEDVGVYFCSQTTHVPWTFGGGTKVEIK
7 | 0.0239 µM | 0.000572 s⁻¹ | 23900 M⁻¹ s⁻¹ |  |  |  | 6A7-H4K1-IgG4 (antibody, V domains shown, Humanized) VH: QVQLVQSGAEVKKPGASVKLSCKASGYTFISYYIYWVKQAPGQGLEWIGGINPRNGGTNFNEKFKSRATLTVDTSISTAYMELSRLRSEDTAVYYCTRHGNGVYWGQGTTLTVSS VL: DVVMTQSPLSLPVTLGQPASISCRSSQSLLHSNGNTYLHWFQQRPGQSPRHLIYQVSNRFSGVPDRFSGSGSGTDFTLKISRVEAEDVGVYYCSQTTHVPWTFGGGTKVEIK
8 | 0.0029 µM | 0.000356 s⁻¹ | 123000 M⁻¹ s⁻¹ | 0.000871 µM | 0.000201 s⁻¹ | 231000 M⁻¹ s⁻¹ | 6A7-H3K3-IgG4 (antibody, V domains shown, Humanized) VH: QVQLVQSGAEVKKPGASVKVSCKASGYTFISYYIYWVRQAPGQGLEWIGGINPRNGGTNFNEKFKSRATLTVDTSISTAYMELSRLRSEDTAVYYCTRHGNGVYWGQGTTVTVSS VL: DVVMTQSPLSLPVTLGDPASISCRSSQSLLHSNGNTYLHWYQQRPGQSPNHLIYQVSNRFSGVPDRFSGSGSGTDFTLKISRVEAEDVGVYFCSQTTHVPWTFGGGTKLEIK
9 | 0.00306 µM | 0.000322 s⁻¹ | 105000 M⁻¹ s⁻¹ | 0.00396 µM | 0.000787 s⁻¹ | 199000 M⁻¹ s⁻¹ | 6A7-H4K2-IgG4 (antibody, V domains shown, Humanized) VH: QVQLVQSGAEVKKPGASVKLSCKASGYTFISYYIYWVKQAPGQGLEWIGGINPRNGGTNFNEKFKSRATLTVDTSISTAYMELSRLRSEDTAVYYCTRHGNGVYWGQGTTLTVSS VL: DVVMTQSPLSLPVTLGQPASISCRSSQSLLHSNGNTYLHWYQQRPGQSPNHLIYQVSNRFSGVPDRFSGSGSGTDFTLKISRVEAEDVGVYFCSQTTHVPWTFGGGTKVEIK
10 | 0.00349 µM | 0.000373 s⁻¹ | 107000 M⁻¹ s⁻¹ |  |  |  | 6A7-H4K3-IgG4 (antibody, V domains shown, Humanized) VH: QVQLVQSGAEVKKPGASVKLSCKASGYTFISYYIYWVKQAPGQGLEWIGGINPRNGGTNFNEKFKSRATLTVDTSISTAYMELSRLRSEDTAVYYCTRHGNGVYWGQGTTLTVSS VL: DVVMTQSPLSLPVTLGDPASISCRSSQSLLHSNGNTYLHWYQQRPGQSPNHLIYQVSNRFSGVPDRFSGSGSGTDFTLKISRVEAEDVGVYFCSQTTHVPWTFGGGTKLEIK
